The supplement of paper PMC9170038

Test system: MS2 coat protein
Assay: apparent KD of MS2 coat protein; higher = weaker reporter binding
Conditions: Eterna round: R107
In short: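 Apparent KD per design is the median of normalised cluster binding-curve fits. Designed RNA switches transcribed on-chip from Illumina sequencing clusters were titrated with SNAP-549-labelled MS2 coat protein in twofold steps from 0.7 or 1.5 nM to 3 µM, with 0.8–1.5 h down to 10–20 min per step. Buffer: 100 mM Tris-HCl pH 7.5, 80 mM KCl, 4 mM MgCl2, without or with constant ligand.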

[1] = input ligand: theophylline 20 uM
[2] = input ligand: theophylline 2 mM
[3] = input ligand: tryptophan 2.4 mM

Sequence | apparent KD of MS2 coat protein (input ligand: arginine 13.2 mM) [nM] | apparent KD of MS2 coat protein [1] [nM] | apparent KD of MS2 coat protein [2] [nM] | apparent KD of MS2 coat protein (input ligand: none) [nM] | apparent KD of MS2 coat protein [3] [nM]
CUGUACAUCUCGGCCGCCACUGCUGACAUGGGAGUCACCCAUGUCCACAUGAGGAUCACCCAUGUCAGGACCGGGAGGUGUGCAG [SSTryp B #25] | 87.4 | 272 | 287 |  | 
CUUGGCUGUGCGGCCGCCACUGACUCAUCCUGCAUUACAUGAGGAUCACCCAUGUUGCGGCCUCCCAGGACCGGGCAUAGCCUGC [Veered] | 102 | 397 | 673 |  | 
GAAGGAACCGGAAGGAGCGGGUCCUUAGCCACUACAUGAGGAUCACCCAUGUCCGGGAGGUCCCAGGUAGGUCGCCGGUCUUAAA [Gelece] | 63.9 | 324 | 934 | 277 | 267
GAAGGAGAGUGAUCCACUCCUUCUCUGGAAGGAGCGAGCGAAAGCUCAGGUAGGUCGCCAGAAACAUGAGGAUCACCCAUGUAAU [(A)''-(M)'-(A)'-(Arg1)-(Arg2)-(M1)-(M2)_Design7] | 61.2 | 92.6 | 123 | 104 | 82.3
GACAUGAGGAUCACCCAUGUACCGCGAGAAGGAGCGCGGAUAAACGCAGGUAGGUCGCUCGUGGGCUUUUAUUCAAUCGAAAGCU [Zaesar] | 26.8 | 106 | 165 | 50.5 | 48
GACCGGUUAUAGUGCGAUUGUCUUGUGGAAGGAGCGCAGAGGACUGCAGGUAGGUCGCCACAUGAGGAUCACCCAUGUCAGGAUA [Tirevete] | 33.8 | 33.4 | 43.9 | 23.7 | 22.3
GACGCAUGAGUUGUAAAAGCUCAUGGGUCGCGAGGACCGGUACGGCCGCCACUCGGCUGUACAUGAGGAUCACCCAUGUCAGGGU [#1 Same State - Tryptophan A Attempt #28 (HarryS)] | 154 | 434 | 886 |  | 
GACGCAUGAGUUGUAACAGCUCAUGGGUCGCGAGGACCGGUACGGCCGCCACUCGGCUGUACAUGAGGAUCACCCAUGUCAGGGU [#1 Same State - Tryptophan A Attempt #29 (HarryS)] | 24.7 | 1320 | 1310 | 346 | 451
GAGACAUCGGGAAGGAGCGCAUCCAAACCACACAUGAGGAUCACCCAUGUAUAAAUAUGCAUGCAGGUAGGUCGCCCGGUAUCCC [Tiisqure] | 26.5 | 40.2 | 35 | 27.8 | 28.9
GAGCUCGUGGACUGGCGUGCUCCGCUCCGUCGAGGACCGGUACGGCCGCCACUCGACAUGAGGAUCACCCAUGUGCGAGCUCGCU [#1 Exclusion - Tryptophan A Attempt #22 (HarryS)] | 11.4 | 113 | 117 | 46.2 | 21.4
GAGUCCGCGGCGGCCGCCACUCGCGGCGCCACAUGGCGCCGGGACAUGAGGAUCACCCAUGUCCCGAGGACCGGGCCGAUCCUCA [Same State Typrtophan B GF4] | 16.6 | 35.6 | 33.9 | 18.1 | 14.5
GAUAGUUGAAGGGAUACCAGCCUGGACAUGAGGAUCACCCAUGUAGCAUGUUUGAAACUGGGCCCUUGGCAGCCCAUAUUGUGUA [#11 Same State - Theophylline B] | 16.6 | 25.4 |  |  | 22.8
GAUCCGUACCAGACCUUCAAUGGACUCAGUCGAGGACCGGUACGGCCGCCACUCGGAGAAGAACAUGAGGAUCACCCAUGUGAUG [theeternabot_exclusion_MS2_Trp_A_36] | 23.9 | 47 | 34.9 |  | 
GAUUGGUAUAGAAGGAGCGUCGAAAAUGGGUAAACAUGAGGAUCACCCAUGUAAAGGGAACGACAGGUAGGUCGCUAUAUUAAUC [AstromonsSSArgB#30] | 146 | 256 | 272 | 174 | 200
GCACCAGGUACGGAUACCAGAAUUUGCCAAUUGGGUGAACAUGAGGAUCACCCAUGUUAUUUCCCUUGGCAGCCGUACCUGGUGC [ETB NP+V+V2 #10] | 8.88 | 13.2 |  |  | 9.45
GCACCAGGUACGGAUACCAGACAUUGCCGUUAGGGUGAACAUGAGGAUCACCCAUGUUUUGUCCCUUGGCAGCCGUACCUGGUGC [ETB NP+V+V2 #7 Same Structure] | 9.58 | 14.7 | 86.5 | 9.57 | 9.85
GCACCAGGUACGGAUACCAGCUAUAGGCCCAAUGGGCGACAUGAGGAUCACCCAUGUAAUGGCCCUUGGCAGCUGUACCUGGUGC [SSThB NP+V+V2 #11 +-Same Structure] | 61.6 | 67.2 |  |  | 99.8
GCACGACAUGAGGAUCACCCAUGUGCAGAUACCAGUAGGAUAUCCUACCCUUGGCAGCUGAGUGGAUCCGGAGGACCAUGGGUAA [Same State Theophylline A GF8] | 32.8 | 61.7 |  |  | 34.7
GCAUCCUAGUCGGCCGCCACUGCAACAUGAGGAUCACCCAUGUCAGGCCUCAUGUGUCCUGGUAGCAGGACCGGGACUAGGAUGC [(T1)-(M1)-(M2)-(T)''-(M)'-(T)'-(T2)_Design4_2/18/17] | 34 | 47.1 | 52 |  | 
GCCGCGGCCGCGAUACACAUGGGUGUGUAACGAGGACCGGUACGGCCGCCACUCGAGAUGGUGCACAUGAGGAUCACCCAUGUGC [Exclusion Tryp A GF15] | 10.3 | 14.1 | 19.3 | 14.9 | 12.1
